How the values were obtained:
20A11-G1m/VK2-28-k0MT = target: T1, 20A11-G1m/VK2-28-k0MT; assay: BLI (Octet), in the same way as in Example 3
T1 construct: IgG antibody-like molecule

20A11hu-G1m/VK2-28-k0MT = target: T2, 20A11hu-G1m/VK2-28-k0MT (Homo sapiens (Human), UniProt P0DOX5 2-447 = IgG part); assay: BLI (Octet), in the same way as in Example 3, 30 C or 25 C
T2 construct: IgG antibody-like molecule

IL6R90-G1m/lamL [1] = target: T3, IL6R90-G1m/lamL (Homo sapiens (Human), UniProt P0DOY2 1-106); assay: BLI (Octet HTX), molecule captured on Protein A biosensor, hsIL-6R as analyte, 30 C
T3 construct: IgG antibody-like molecule lacking VL
Experimental: (§1) The hsIL-6R binding evaluation of each molecule was conducted using Octet HTX (Pall ForteBio Corp.). Specifically, each molecule was bound to Biosensor/Protein A (ProA) (Pall ForteBio Corp., 18-5013), and hsIL-6R was allowed to act thereon, followed by binding evaluation at 30° C.

IL6R90-G1m/VK2-28-k0MT = target: T4, IL6R90-G1m/VK2-28-k0MT; assay: as above
T4 construct: IgG antibody-like molecule
Experimental: as §1

IL6R90-G1m/lamL [2] = target: T3, IL6R90-G1m/lamL; assay: BLI (Octet HTX), hsIL-6R-BAP1 on streptavidin sensor, molecule as analyte, 30 C
human CD3ed-Fc = target: T5, human CD3ed-Fc (human); assay: phage display: panning on biotin-labeled human CD3ed-Fc and/or phage ELISA
T5 construct: Biotinylated in culture with BirA; The heterodimer fraction was purified; also called biotin-labeled protein containing human CD3 epsilon and human CD3 delta linked to a human antibody constant region; CD3 epsilon-delta heterodimer fused with the antibody constant region
T5 chain 1: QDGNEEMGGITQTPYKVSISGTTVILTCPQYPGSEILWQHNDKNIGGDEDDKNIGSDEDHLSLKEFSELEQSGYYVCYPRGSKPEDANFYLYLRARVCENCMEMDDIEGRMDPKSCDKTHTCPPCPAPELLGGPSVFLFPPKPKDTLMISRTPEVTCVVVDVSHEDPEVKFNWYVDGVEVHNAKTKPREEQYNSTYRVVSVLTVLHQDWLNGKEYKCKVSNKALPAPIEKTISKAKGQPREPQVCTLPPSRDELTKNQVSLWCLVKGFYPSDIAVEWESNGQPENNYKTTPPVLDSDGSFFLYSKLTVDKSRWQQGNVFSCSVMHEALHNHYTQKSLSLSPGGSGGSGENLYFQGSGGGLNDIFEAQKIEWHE
T5 chain 2: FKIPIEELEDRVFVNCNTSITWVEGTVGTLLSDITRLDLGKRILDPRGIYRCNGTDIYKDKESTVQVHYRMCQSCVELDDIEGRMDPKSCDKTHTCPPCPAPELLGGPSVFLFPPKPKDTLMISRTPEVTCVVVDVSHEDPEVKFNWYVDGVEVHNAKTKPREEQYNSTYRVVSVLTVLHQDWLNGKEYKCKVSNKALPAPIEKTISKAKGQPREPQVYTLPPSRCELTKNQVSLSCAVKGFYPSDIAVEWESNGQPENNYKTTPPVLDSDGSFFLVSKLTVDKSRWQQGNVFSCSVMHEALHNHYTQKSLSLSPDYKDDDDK

T2 sequence (P0DOX5 other isoform, or with tags, fused parts or gaps, chain 1 of 2): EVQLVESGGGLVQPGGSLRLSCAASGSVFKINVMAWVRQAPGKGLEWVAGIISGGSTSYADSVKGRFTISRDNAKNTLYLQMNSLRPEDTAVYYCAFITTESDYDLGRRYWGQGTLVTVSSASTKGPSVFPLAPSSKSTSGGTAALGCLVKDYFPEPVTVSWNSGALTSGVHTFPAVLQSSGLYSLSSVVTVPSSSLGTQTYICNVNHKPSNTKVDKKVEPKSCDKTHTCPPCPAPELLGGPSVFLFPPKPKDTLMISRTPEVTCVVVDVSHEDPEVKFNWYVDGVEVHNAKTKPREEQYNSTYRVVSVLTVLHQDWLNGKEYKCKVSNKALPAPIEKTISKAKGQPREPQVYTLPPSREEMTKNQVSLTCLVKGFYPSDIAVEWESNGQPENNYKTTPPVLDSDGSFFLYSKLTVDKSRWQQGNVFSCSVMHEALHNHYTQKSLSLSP
T2 sequence (light, as listed by the source, chain 2 of 2): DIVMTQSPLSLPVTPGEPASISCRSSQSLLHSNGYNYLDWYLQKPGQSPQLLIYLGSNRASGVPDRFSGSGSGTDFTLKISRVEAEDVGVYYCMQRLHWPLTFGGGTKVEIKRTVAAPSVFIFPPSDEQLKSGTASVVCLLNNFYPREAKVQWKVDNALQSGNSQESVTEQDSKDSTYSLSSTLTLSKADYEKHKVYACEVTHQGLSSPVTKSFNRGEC
T4 sequence (light, as listed by the source, chain 2 of 2, other chains not shown): as the sequence (light, as listed by the source, chain 2 of 2) above
T1 sequence (heavy, as listed by the source, chain 1 of 2): as the sequence (P0DOX5 other isoform, or with tags, fused parts or gaps, chain 1 of 2) above, with V37Y, L45R, W47L counted along it
T1 sequence (light, as listed by the source, chain 2 of 2): as the sequence (light, as listed by the source, chain 2 of 2) above

B1: soluble human IL-6R (receptor)
chain: LAPRRCPAQEVARGVLTSLPGDSVTLTCPGVEPEDNATVHWVLRKPAAGSHPSRWAGMGRRLLLRSVQLHDSGNYSCYRAGRPAGTVHLLVDVPPEEPQLSCFRKSPLSNVVCEWGPRSTPSLTTKAVLLVRKFQNSPAEDFQEPCQYSQESQKFSCQLAVPEGDSSFYIVSMCVASSVGSKFSKTQTFQGCGILQPDPPANITVTAVARNPRWLSVTWQDPHSWNSSFYRLRFELRYRAERSKTFTTWMVKDLQHHCVIHDAWSGLRHVVQLRAQEEFGQGEWSEWSPEAMGTPWTESRSPPAENEVSTPMQALTTNKDDDNILFRDSANATSLPVQ
notes: Expressed in CHO cells and purified from the supernatant; also called hsIL-6R; recombinant human IL6R
Q: Does B1 bind (20A11-G1m/VK2-28-k0MT)?
A: binds

Q: Does B1 bind (20A11hu-G1m/VK2-28-k0MT)?
A: no binding

Q: Does B1 bind (IL6R90-G1m/lamL [1])?
A: binds

Q: Does B1 bind (IL6R90-G1m/VK2-28-k0MT)?
A: no binding

B2: hsIL-6R-BAP1 (receptor)
chain: LAPRRCPAQEVARGVLTSLPGDSVTLTCPGVEPEDNATVHWVLRKPAAGSHPSRWAGMGRRLLLRSVQLHDSGNYSCYRAGRPAGTVHLLVDVPPEEPQLSCFRKSPLSNVVCEWGPRSTPSLTTKAVLLVRKFQNSPAEDFQEPCQYSQESQKFSCQLAVPEGDSSFYIVSMCVASSVGSKFSKTQTFQGCGILQPDPPANITVTAVARNPRWLSVTWQDPHSWNSSFYRLRFELRYRAERSKTFTTWMVKDLQHHCVIHDAWSGLRHVVQLRAQEEFGQGEWSEWSPEAMGTPWTESRSPPAENEVSTPMQALTTNKDDDNILFRDSANATSLPVQGGGGSGLNDIFEAQKIEWHE
modifications: biotin on the C-terminal AviTag sequence (BirA)
notes: also called hsIL-6R-Avitag; biotinylated soluble human IL6R
Q: Does B2 bind (IL6R90-G1m/lamL [2])?
A: binds

B3: bC3edL1R1N161H01 (VHH)
VHH: QVQLVESGGGLVQPGGSLRLSCAASGFPFDNYVMSWVRQAPGKGLEWISAISWNGGSTYYAESMKGRFTISRDNAKSTLYLQMNSLKSEDTAVYYCAKEPRVYYSGSPDYWGQGTQVTVSG
Q: Does B3 bind (human CD3ed-Fc)?
A: binds

B4: bC3edL1R1N164H01 (VHH)
VHH: QVQLVESGGGLVQPGGSLRLSCAASGFTFDVYGMSWVRHSPGKGLEWVSTINWNGGSTYYAESMKGRFTISRDNAKNTVYLQMNSLKPEDTAVYYCAKFAPWDGDMEWGQGTQVTVSG
Q: Does B4 bind (human CD3ed-Fc)?
A: binds

B5: bC3edL1R1N160H01 (VHH)
VHH: QVQLVESGGGLVQPGGSLRLSCAASGFTFNHCWMYWVRQAPGKGLEWVSVINTDGGSAYYADSVKGRFTISRDNAKNTLYLQMNSLKSEDTAVYYCARDWAPLVDYYYGMDYWGKGTLVTVSG
Q: Does B5 bind (human CD3ed-Fc)?
A: binds

Source: patent US20240150476A1 (Chugai, published 2024)
